Assay results published in paper PMC4039619.
pKd: −log10 of the molar value. Where two headings read alike, the source gives them in different places.

Experiments:
[1] = target: insulin from porcine pancreas (porcine)
[2] = target: insulin from porcine pancreas (porcine); assay: ELISA
[3] = target: recombinant human IGF-II (human); assay: ELISA
[4] = target: human proinsulin (human); assay: ELISA

human recombinant decorin protein core, sequence (P07585 31-359): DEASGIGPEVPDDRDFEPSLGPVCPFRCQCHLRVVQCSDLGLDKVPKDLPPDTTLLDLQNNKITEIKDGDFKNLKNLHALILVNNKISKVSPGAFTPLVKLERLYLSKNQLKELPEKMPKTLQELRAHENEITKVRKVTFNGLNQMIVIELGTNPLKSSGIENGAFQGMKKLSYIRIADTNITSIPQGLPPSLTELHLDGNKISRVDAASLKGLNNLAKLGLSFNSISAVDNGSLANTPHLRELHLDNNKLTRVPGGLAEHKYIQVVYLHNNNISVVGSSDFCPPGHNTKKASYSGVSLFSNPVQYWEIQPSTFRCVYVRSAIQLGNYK
insulin from porcine pancreas (porcine), sequence (P01315 25-54, chain 1 of 2): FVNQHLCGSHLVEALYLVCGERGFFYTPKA
insulin from porcine pancreas (porcine), sequence (P01315 88-108, chain 2 of 2): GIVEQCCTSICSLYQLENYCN
decorin proteoglycan, sequence (P07585 31-359): as the sequence (P07585 31-359) above
recombinant human IGF-II (human), sequence (P01344 25-91): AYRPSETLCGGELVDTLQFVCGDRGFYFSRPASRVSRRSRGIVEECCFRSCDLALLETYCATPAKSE

| pKd [1] | pKd [2] | pKd [3] | pKd [4] | Substance |
| --- | --- | --- | --- | --- |
| 7.87 |  |  |  | decorin proteoglycan (from UniProt P07585 31-359) (natural protein) |
|  | 8.51 | 8.82 | 8.03 | human recombinant decorin protein core (from UniProt P07585 31-359) (natural protein) |
